A word on the Kd: it is the equilibrium constant for the complex coming apart.

Data set [1] addresses T1, Nme1Cas9 (Neisseria meningitidis, UniProt C9X1G5 1-1082).
T1 sequence: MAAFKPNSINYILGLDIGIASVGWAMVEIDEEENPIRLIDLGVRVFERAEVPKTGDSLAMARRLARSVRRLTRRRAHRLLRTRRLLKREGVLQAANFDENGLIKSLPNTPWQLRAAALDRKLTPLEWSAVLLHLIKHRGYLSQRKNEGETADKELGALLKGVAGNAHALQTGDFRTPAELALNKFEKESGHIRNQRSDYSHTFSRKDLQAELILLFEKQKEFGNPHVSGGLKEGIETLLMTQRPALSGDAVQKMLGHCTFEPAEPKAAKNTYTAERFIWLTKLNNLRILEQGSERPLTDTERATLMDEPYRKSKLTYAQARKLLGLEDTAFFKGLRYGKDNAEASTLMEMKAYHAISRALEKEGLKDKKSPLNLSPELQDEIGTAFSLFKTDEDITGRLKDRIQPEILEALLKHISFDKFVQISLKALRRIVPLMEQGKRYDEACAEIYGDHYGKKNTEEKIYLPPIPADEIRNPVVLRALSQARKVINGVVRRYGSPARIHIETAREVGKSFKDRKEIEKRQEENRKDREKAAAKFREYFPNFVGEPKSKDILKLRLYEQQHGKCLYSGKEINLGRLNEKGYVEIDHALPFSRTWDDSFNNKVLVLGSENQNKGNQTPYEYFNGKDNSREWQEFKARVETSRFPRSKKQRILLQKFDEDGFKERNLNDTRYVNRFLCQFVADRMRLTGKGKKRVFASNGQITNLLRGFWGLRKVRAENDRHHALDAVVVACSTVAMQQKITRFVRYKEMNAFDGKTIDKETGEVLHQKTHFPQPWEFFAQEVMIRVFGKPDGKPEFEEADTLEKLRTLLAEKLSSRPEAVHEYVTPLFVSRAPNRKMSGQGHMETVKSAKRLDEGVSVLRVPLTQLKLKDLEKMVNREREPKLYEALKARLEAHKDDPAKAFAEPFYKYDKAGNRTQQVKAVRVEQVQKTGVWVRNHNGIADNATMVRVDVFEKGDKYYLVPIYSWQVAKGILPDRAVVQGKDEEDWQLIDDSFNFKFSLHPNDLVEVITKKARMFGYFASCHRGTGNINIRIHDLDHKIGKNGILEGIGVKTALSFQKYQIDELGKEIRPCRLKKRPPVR
The experiment in a line: filter binding; no AcrIIC2Nme; 5 mM MgCl2; Filter binding: 20 mM Tris pH 7.5, 100 mM KCl, 5 mM MgCl2, 1 mM DTT, 5% glycerol, 0.01% Igepal, 10 ug/mL yeast tRNA, 10 ug/mL BSA, 37 C, 30 min; ITC: 300 mM NaCl, 20 mM Tris pH 7.5, 20 C; gel filtration: 300 mM NaCl, 20 mM Tris pH 7.5; pull-down: 50 mM Tris pH 7.5, 200 mM NaCl, 5% glycerol, 20 mM imidazole. The following applies: protein: recombinant; label: radiolabeled; sgRNA with repeat:anti-repeat hairpin and stem loops 1 and 2. (In gel filtration, larger molecules generally elute earlier.)

Data set [2] concerns the target T1, Nme1Cas9. The experiment in a line: filter binding; no AcrIIC2Nme; Filter binding: 20 mM Tris pH 7.5, 100 mM KCl, 5 mM MgCl2, 1 mM DTT, 5% glycerol, 0.01% Igepal, 10 ug/mL yeast tRNA, 10 ug/mL BSA, 37 C, 30 min; ITC: 300 mM NaCl, 20 mM Tris pH 7.5, 20 C; gel filtration: 300 mM NaCl, 20 mM Tris pH 7.5; pull-down: 50 mM Tris pH 7.5, 200 mM NaCl, 5% glycerol, 20 mM imidazole. Conditions: protein: recombinant; label: radiolabeled; hairpin.

B1: full length sgRNA (filter binding) (structured_RNA)
RNA: GGUCUGUAAGCGGAUGCCAUAUGGUUGUAGCUCCCUUUCUCGAAAGAGAACCGUUGCUACAAUAAGGCCGUCUGAAAAGAUGUGCCGCAACGCUCUGCCCCUUAAAGCUUCUGCUUUAACGGGCUU
Take B1: in data set [1], the dissociation constant Kd was found to be 0.24 ± 0.14 nM.
As for GGUUGUAGCUCCCUUUCUCGAAAGAGAACCGUUGCUACAAUAA (structured_RNA) [repeat:anti-repeat (cr:tracr)], in data set [2], the binding result is listed as “binds”.

These data come from paper PMC6594998, “Inhibition of CRISPR-Cas9 ribonucleoprotein complex assembly by anti-CRISPR AcrIIC2”.
